The source of these data is publication PMC8613289.

Some targets named below: AHCTF1; NDC1; NUPL2; Nup214 (UniProt P35658); Nup50 (UniProt Q9UKX7); RANGAP1; RanBP2 (UniProt P49792).
Common to all, as to assay: TurboID proximity biotinylation, streptavidin pull-down, MS-based proteomics
What all share (conditions): biotin for 1 h; n = 5; read off a plot

On to “EphA2-V5-TurboID (wild-type EphA2) (from UniProt P29317) NLS1 (RRR>AAA in the juxtamembrane stretch …, as read from Fig. 3a; no residue numbers printed)”, for which the other: Student's T-test Difference WT NLS1 in the assay with AHCTF1 was 0.5; with NDC1, -1; with NUPL2, -1.6; in the assay with Nup214, 2; with Nup50, 2.5; in the assay with RANGAP1, 1.8. The other: Student's T-test Difference WT NLS1 in the assay with RanBP2 is 1.5.

Turning to “EphA2-V5-TurboID (wild-type EphA2) (from UniProt P29317) NLS2 (two K>A in the stretch …, as read from Fig. 3a; no residue numbers printed)”, the other: Student's T-test Difference WT NLS2 with AHCTF1 is 1.3; with Nup214, 2.9; in the assay with Nup50, 3.1; in the assay with RANGAP1, 2.6; with RanBP2 it was 2.1.
